Patent publication US20170306015A1 (DEUTSCHES KREBSFORSCHUNGSZENTRUM STIFTUNG DES FFENTLICHEN …, published 2017)

Molecular target: T1, L1-Fc (human L1-Fc protein comprising the ectodomain of L1) (human, UniProt P32004 20-1120)
T1 construct: extracellular domain; also called L1CAM; CD171; not shown: Fc part
Test: SPR, BIAcore 3000, L1-Fc immobilised on CM5 chip, antibody injected
Protocol: (§1) Affinity to L1 may be determined by methods known in the art, as for example by surface plasmon resonance. The binding analysis for L1-OV52.24 was performed using a BIAcore 3000 equipped with a CM5 sensor chip. Briefly, a BIAcore CM5 chip was activated with EDC/NHS and various levels of L1-Fc were captured onto the activated surface. The remaining active sites were blocked by ethanolamine/HCl. L1-OV52.24 was bound to the L1-Fc surface and allowed to dissociate over time. The association and dissociation phases for each injection over each density surface were subjected to kinetic analysis.
as §1, with “The” for “Affinity to L1 may be determined by methods known in the art, as for example by surface plasmon resonance. The”, “analysis” for “analysis for L1-OV52.24”, “L1-mAb were” for “L1-OV52.24 was”

T1 sequence (P32004 20-1120): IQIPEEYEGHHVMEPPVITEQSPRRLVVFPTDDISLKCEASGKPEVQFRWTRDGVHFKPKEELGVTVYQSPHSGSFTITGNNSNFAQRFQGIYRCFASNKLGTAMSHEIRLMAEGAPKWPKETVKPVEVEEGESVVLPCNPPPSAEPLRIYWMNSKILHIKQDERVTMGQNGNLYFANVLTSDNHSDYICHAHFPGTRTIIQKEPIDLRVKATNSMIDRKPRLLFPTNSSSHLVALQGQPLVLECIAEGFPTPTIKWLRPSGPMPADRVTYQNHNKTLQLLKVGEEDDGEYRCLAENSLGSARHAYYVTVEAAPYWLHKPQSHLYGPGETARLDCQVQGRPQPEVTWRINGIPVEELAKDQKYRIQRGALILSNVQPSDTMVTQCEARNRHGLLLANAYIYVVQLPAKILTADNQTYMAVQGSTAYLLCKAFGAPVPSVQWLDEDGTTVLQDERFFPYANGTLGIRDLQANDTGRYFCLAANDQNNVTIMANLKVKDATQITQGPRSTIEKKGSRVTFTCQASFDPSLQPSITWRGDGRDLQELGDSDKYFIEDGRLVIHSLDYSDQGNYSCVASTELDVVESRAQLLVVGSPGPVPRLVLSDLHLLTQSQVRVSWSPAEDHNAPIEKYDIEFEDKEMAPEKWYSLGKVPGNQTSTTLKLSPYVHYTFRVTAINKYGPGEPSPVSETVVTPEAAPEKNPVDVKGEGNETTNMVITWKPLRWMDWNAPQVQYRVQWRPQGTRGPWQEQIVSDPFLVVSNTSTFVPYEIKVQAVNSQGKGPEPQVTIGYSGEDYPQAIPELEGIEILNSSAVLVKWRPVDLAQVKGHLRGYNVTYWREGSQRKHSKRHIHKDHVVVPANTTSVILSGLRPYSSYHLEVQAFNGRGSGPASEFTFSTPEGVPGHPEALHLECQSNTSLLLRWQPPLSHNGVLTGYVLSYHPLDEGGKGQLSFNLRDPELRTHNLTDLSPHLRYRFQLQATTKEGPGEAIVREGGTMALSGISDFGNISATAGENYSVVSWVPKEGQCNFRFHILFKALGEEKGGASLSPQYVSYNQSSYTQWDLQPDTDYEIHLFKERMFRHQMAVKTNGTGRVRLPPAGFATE

Kd: 2.41 nM
B1: monoclonal antibody L1-OV52.24 (antibody, IgG1, V domains shown)
VH: EVQLQQSGAELVRPGALVKLSCKASGFNIKDYYMQWVKQRPEQGLEWIGWIDPENGKTVFDPKFRGKASISADTSSNTAYLQLSSLTSEDTAVYYCARWNPLAFWGQGTLVTVSS
VL: DIVMTQSQKFMSTSVGDRVSVTCKASQNVGTNVAWYQQKPGHSPKALIYSTSYRYSGVPDRFTGSGSGTDFTLTIRNVQSEDLAEYFCQQYNTYPYTFGGGTKLEIK
notes: also called mAb L1-OV52.24; L1CAM mAb OV52.24
